Data set [1] addresses T1, chymase (recombinant, manufactured by SIGMA) (Homo sapiens, UniProt P23946).
T1 construct: purchased SIGMA; host or cells: yeast
T1 sequence (P23946 22-247): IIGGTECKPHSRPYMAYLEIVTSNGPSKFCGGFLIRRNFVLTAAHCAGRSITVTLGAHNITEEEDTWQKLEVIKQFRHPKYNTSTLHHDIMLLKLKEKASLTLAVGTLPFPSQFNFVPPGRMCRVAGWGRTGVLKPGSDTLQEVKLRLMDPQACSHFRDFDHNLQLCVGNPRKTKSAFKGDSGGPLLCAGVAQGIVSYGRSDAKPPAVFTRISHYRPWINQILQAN
In words: Chymase inhibitory activity using synthetic substrate Suc-Ala-Ala-Pro-Phe-MCA. The class given is biochemical. Conditions: Table 3; substrate 100 μM, solution C, 37° C.; mean value for 2 to 3 measurements. As for the experimental part: A first method employs a synthetic substrate. A useful chymase substrate is Suc-Ala-Ala-Pro-Phe-MCA (4-methylcoumaryl-7-amide group) (manufactured by Peptide Institute, Inc.), which contains the 4-amino acid peptide “Ala-Ala-Pro-Phe”, a standard substrate for chymotrypsin-like proteases.
The assay is performed using a 96-well plate (F16 Black Maxisorp Fluoronunc, manufactured by Nunc), with a reaction mixture volume of 100 μL, in a buffer solution (solution C; see Example 2 below). First, each nucleic acid is prepared in solution C to obtain 50 μL solutions. After 10 μL of the 1 mM substrate prepared in solution C is added, the plate is set to the microplate reader SpectraMax190 (manufactured by Molecular Devices Corporation), and incubated at 37° C. for 5 minutes. Separately, 0.05 μg of chymase (recombinant, manufactured by SIGMA) is diluted in solution C, and 40 μL of this dilution is incubated at 37° C. for 5 minutes. The chymase solution is added to the mixture of the nucleic acid and substrate to initiate an enzyme reaction. The plate containing the reaction mixture is set to the microplate reader SpectraMax190 (manufactured by Molecular Devices Corporation), and examined for time-dependent changes in the fluorescence intensity at 37° C. for 5 minutes (excitation wavelength 380 nm, detection wavelength 460 nm). A linear approximation of the increase in the fluorescence of the AMC (7-amino-4-methylcoumarine) released from the substrate by chymase activity is generated, and its slope is taken as the initial reaction velocity. For control, samples are treated and analyzed in the same manner in two cases: use of a nucleic acid pool containing a random sequence of 30 or 40 nucleotides (negative control), and use of chymostatin, a known chymotrypsin-like serine protease inhibitor (positive control). Taking the initial reaction velocity without the nucleic acid and inhibitor as a 100% enzyme activity, the inhibitory rate for each test substance is calculated, and the inhibitor concentration required to cause a 50% inhibition of the enzyme activity (IC50) is determined.
Whether the nucleic acids shown by SEQ ID NO: 4-20, 22-34, and 38-48 inhibit the enzyme activity of chymase was determined as described below. The chymase substrate used was Suc-Ala-Ala-Pro-Phe-MCA (manufactured by Peptide Institute, Inc.), which contains the 4-amino-acid peptide Ala-Ala-Pro-Phe, a standard substrate for chymotrypsin-like proteases. Here, Suc is a protecting succinyl group, and MCA is a 4-methylcoumaryl-7-amide group; upon cleavage of the C-terminal side of phenylalanine, AMC (7-amino-4-methylcoumarine) is released. By detecting the fluorescence of this AMC, the enzyme activity of chymase can be determined. The assay was performed using a 96-well plate (F16 Black Maxisorp Fluoronunc, manufactured by Nunc), with a reaction mixture volume of 100 μL, in solution C as a buffer solution. First, each nucleic acid was serially diluted to 0.0027-2 μM concentrations in solution C to obtain 50 μL solutions. After 10 μL of the 1 mM substrate prepared in solution C was added thereto, the plate was set to the microplate reader SpectraMax190 (manufactured by Molecular Devices Corporation), and incubated at 37° C. for 5 minutes. Separately, 0.05 μg (or 0.005 μg) of chymase (recombinant, manufactured by SIGMA) was diluted in solution C to obtain a 40 μL chymase solution, and incubated at 37° C. for 5 minutes. The chymase solution was added to the mixture of the nucleic acid and substrate to initiate an enzyme reaction. The final chymase concentration in the reaction mixture was 16.7 nM (or 1.67 nM), the final substrate concentration being 100 μM. The plate containing the reaction mixture was set to the microplate reader SpectraMax190 (manufactured by Molecular Devices Corporation), and examined for time-dependent changes in the fluorescence intensity at 37° C. for 5 minutes (or 30 minutes) (excitation wavelength 380 nm, detection wavelength 460 nm). […]

A further data set has as its target T2, chymase (Homo sapiens, UniProt P23946).
T2 sequence (P23946 22-247): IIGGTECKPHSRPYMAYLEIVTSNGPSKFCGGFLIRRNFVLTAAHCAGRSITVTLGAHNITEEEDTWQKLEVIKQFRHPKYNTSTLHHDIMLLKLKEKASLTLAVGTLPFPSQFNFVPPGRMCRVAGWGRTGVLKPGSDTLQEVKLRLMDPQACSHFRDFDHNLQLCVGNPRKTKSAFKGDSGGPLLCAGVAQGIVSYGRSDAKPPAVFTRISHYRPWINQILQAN
In words: Surface plasmon resonance (Biacore T100), aptamer immobilized on SA chip, chymase injected as analyte. The data set is classed as binding. The arrangement: key: ++: a sequence that binds to chymase significantly more strongly than the negative control 40N; +: a sequence that binds to chymase equivalently compared with the negative control 40N. The settings on record: Table 1; about 1000 RU nucleic acid immobilized, chymase 0.2 μM analyte, running buffer solution A; compared with 40N. The method, then:
Binding strength is measured using Biacore T100 (manufactured by GE Healthcare). In a method of measurement, the aptamer is first immobilized onto a sensor chip, the amount immobilized being about 1000 RU. 20 μL of a chymase solution for analyte, prepared at 0.2 μM, is injected, and the binding of chymase to the aptamer is detected. An RNA comprising a random nucleotide sequence of 30 or 40 nucleotides is used as a negative control.
The binding activities against chymase of the nucleic acids shown by SEQ ID NO: 4-20 and 22-34 were determined by the surface plasmon resonance method using Biacore T100 (manufactured by GE Healthcare). The sensor chip used was the SA chip, which had streptavidin immobilized thereon. Bound thereto was about 1500 RU of a 16-nucleotide Poly dT with biotin bound to the 5′ end thereof. […] 20 μL of chymase for analyte, prepared at 0.2 μM, was injected. Solution A was used as a running buffer.
The binding activities against chymase of the nucleic acids shown by SEQ ID NO: 38-48 were evaluated by the surface plasmon resonance method. In the evaluations for SEQ ID NO: 38-48, measurements were taken in the same manner as Example 1. Solution C was used as a running buffer.
A general note: In SPR one partner is held on a chip, and binding of the other changes the refractive index at the surface.

Oligonucleotides are written 5' to 3', each unit as a sugar letter and its base; * is a phosphorothioate linkage, no mark a phosphodiester; rarer units and linkages stand in square brackets, end groups in braces. Plain capitals give the bases only. r = 2'-OH (RNA); f = 2'-fluoro

In general, IC50 refers to the point on the concentration scale where inhibition reaches its midpoint.

B1: 28 (nucleic acid)
chain: rGrGrGrAfCrGrGfUrArGrGrArAfUfUfCrArAfUfUfUfCfUfUfUfCfUrAfUfUfCfUfCrAfCfCfUrGrArGfUrAfUrAfUfCrArGrGfCrAfCrArGfUrAfCrAfUrArGrArArGrArGfCrGrGfCfCrGfC
modifications: aptamer
Take B1: the IC50 in data set [1] turned out to be 45 ± 4 nM. In the data set with chymase, the “Binding activity as determined using Biacore” value (from here on “Binding activity as determined”) is on record as “+”.

B2: 6 (nucleic acid)
chain: rGrGrGrAfCrGrGfUrArGrGrArAfUfUfCfUrAfCrGrGfUfCfUrGfUrGfUrGrArArAfUfUrGrArArAfCrAfCrAfCrArArArGrArAfCrArAfUrArGrAfCrAfUrArGrArArGrArGfCrGrGfCfCrGfC
modifications: aptamer
Consider B2, for which the IC50 in data set [1] stood at 456 ± 261 nM. Besides, in the data set with chymase, the “Binding activity as determined” value was “++”.

B3: 29 (nucleic acid)
chain: rGrGrGrAfCrGrGfUrArGrGrArAfUfUfCrAfCrGrAfCfCrGfCfCfCrArArArArArAfUrGrGfUrGrAfCrAfUfUfUfUrArGrArArAfCrAfCfCrGrArAfCrAfUrArGrArArGrArGfCrGrGfCfCrGfC
modifications: aptamer
B3: in data set [1], the half-maximal inhibitory concentration (IC50) was over 500 nM. In addition, the “Binding activity as determined” value in the data set with chymase is “++”.

B4: 7 (nucleic acid)
chain: rGrGrGrAfCrGrGfUrArGrGrArAfUfUfCrAfCfCfUfUfUfCfCrArAfUfUrGfUrGrArArArGrArArAfCrAfCrArArArArArGrArArAfUrGrAfCrAfUfCrAfUrArGrArArGrArGfCrGrGfCfCrGfC
modifications: aptamer
Turning to B4, in data set [1], the IC50 is over 500 nM. In addition, the “Binding activity as determined” value in the data set with chymase is recorded as “++”.

B5: 30 (nucleic acid)
chain: rGrGrGrAfCrGrGfUrArGrGrArAfUfUfCrGfUfCfCfCfUfCfUfUrGfUfCfUrAfUfUfUfUrGfCrArGrAfUrArGrAfCfUfUrArArArGfCrArArAfCrAfUrArGrArArGrArGfCrGrGfCfCrGfC
Consider B5, for which the IC50 in data set [1] is 147 ± 44 nM. Further, the “Binding activity as determined” value with chymase was “++”.

B6: 31 (nucleic acid)
chain: rGrGrGrAfCrGrGfUrArGrGrArAfUfUfCrGfUfCfCfCfUfCrAfUrGfUfCfUrAfUfUfUfUrGfCrArGrAfUrArGrAfCfUfUrArArArGfCrArArAfCrAfUrArGrArArGrArGfCrGrGfCfCrGfC
Regarding B6, the IC50 in data set [1] was 155 ± 39 nM. The “Binding activity as determined” value with chymase is “+”.

B7: 5 (nucleic acid)
chain: rGrGrGrAfCrGrGfUrArGrGrArAfUfUfCfCfCrAfCfUfUrGfUfCfUfUfUrGrArGrGfCrArArGrArArAfUfUrGfUrAfUfUfCfCrGrArArGrArArGfCrAfUrArGrArArGrArGfCrGrGfCfCrGfC
modifications: aptamer
Regarding B7, the IC50 in data set [1] amounted to 80 ± 39 nM. In addition, the “Binding activity as determined” value with chymase is “++”.

B8: 33 (nucleic acid)
chain: rGrGrGrAfCrGrGfUrArGrGrArAfUfUfCfCfUrGfUfCfUfUfUfUfCfCfCrAfCrGfCrArAfCrArArAfUfUrAfCrArGrArGfCfUfUfUrGfCrArArArAfCrAfUrArGrArArGrArGfCrGrGfCfCrGfC
modifications: aptamer
With B8, the IC50 in data set [1] amounted to 145 ± 88 nM. The “Binding activity as determined” value with chymase is “+”.

B9: 32 (nucleic acid)
chain: rGrGrGrAfCrGrGfUrArGrGrArAfUfUfCrGfUfCfCfUfCrAfUrGfUfCfUrAfUfUfUfUrGfCrArGrAfUrArGrAfCfUfUrArArArGfCrArArAfCrAfUrArGrArArGrArGfCrGrGfCfCrGfC
For the molecule B9, in data set [1], the IC50 amounted to 235 ± 55 nM. In addition, in the data set with chymase, the “Binding activity as determined” value is recorded as “+”.

B10: 27 (nucleic acid)
chain: rGrGrGrAfCrGrGfUrArGrGrArAfUfUfCfCrGfUfCrAfUfCrGrGfUfUrGfCrArArAfUfUrGrArArArAfUrAfCrArArArAfCrArArGrGrAfCrArAfCfCrAfUrArGrArArGrArGfCrGrGfCfCrGfC
modifications: aptamer
As to B10, the half-maximal inhibitory concentration (IC50) in data set [1] is over 500 nM. In the data set with chymase, the “Binding activity as determined” value is given as “++”.

B11: 34 (nucleic acid)
chain: rGrGrGrAfCrGrGfUrArGrGrArAfUfUfCfUrGfCfCrGfCrArAfCfCfCrArAfUrGrArArArAfCrGrArArGrAfUrArGrArGrAfUrArArAfUfCrGrArAfCrAfUrArGrArArGrArGfCrGrGfCfCrGfC
modifications: aptamer
B11: the half-inhibitory concentration (IC50) in data set [1] was 137 ± 9 nM. Moreover, the “Binding activity as determined” value in the data set with chymase was “+”.
